Residue numbers refer to the chain shown, from its start. Names may count otherwise.
T1: human IL-18BP (Homo sapiens, UniProt O95998)
T1 construct: His
T1 sequence (O95998 31-194): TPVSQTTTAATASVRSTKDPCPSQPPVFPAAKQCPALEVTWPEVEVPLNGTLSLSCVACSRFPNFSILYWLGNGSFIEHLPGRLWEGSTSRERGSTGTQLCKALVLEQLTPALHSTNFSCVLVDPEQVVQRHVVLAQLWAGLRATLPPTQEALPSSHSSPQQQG

B1: 44 (protein)
chain: YAGKLKSKLSVIRNLNDQVLFIDQGNRPLFEDMTDSDCRDNAPRTIFIISMYADAQPRGMAVTISVKCEKISTLSCENKIISFKEMNPPDNIKDTKSDIIFFQRSVPGHDNKMQFESSSYEGYFLACEKERDLFKLILKKEDELGDRSIMFTVQNED
B2: 49 (protein)
chain: B1 chain with A2F, C38S, C68S, K70C, C76S, C127S
B3: 5 (protein)
chain: B1 chain with A2F, V11I, C38A, A55S, T63A, C68A, C76A, M86C, C127A
B4: 6 (protein)
chain: B1 chain with A2F, V11I, C38A, A55S, T63A, C68A, C76A, D98C, C127A
B5: 45 (protein)
chain: B1 chain with A2F, D54A
B6: SEQ ID NO: 72: IL-18 polypeptide: N-terminal 4xG, E6K, V11I, C38A, K53A, T63A, C76A, C127A (protein)
chain: GGGGYFGKLKSKLSIIRNLNDQVLFIDQGNRPLFEDMTDSDARDNAPRTIFIISMYADSQPRGMAVAISVKCEKISTLSAENKIISFKEMNPPDNIKDTKSDIIFFQRSVPGHDNKMQFESSSYEGYFLAAEKERDLFKLILKKEDELGDRSIMFTVQNED
modifications: N-terminal 4xG
notes: IL-18 polypeptide: N-terminal 4xG, E6K, V11I, C38A, K53A, T63A, C76A, C127A
B7: SEQ ID NO: 69: IL-18 polypeptide: E6K, V11I, C38A, M51G, K53A, T63A, C76A, C127A (protein)
chain: B1 chain with A2F, V11I, C38A, M51G, A55S, T63A, C76A, C127A
B8: C184: IL-18 polypeptide: E6R, V11I, C38A, K53A, T63A, C76A, C127A (protein)
chain: B1 chain with A2F, K6R, V11I, C38A, A55S, T63A, C76A, C127A
B9: C177: IL-18 polypeptide: E6K, V11I, C38A, I49R, K53A, T63A, C76A, C127A (protein)
chain: B1 chain with A2F, V11I, C38A, I49R, A55S, T63A, C76A, C127A
B10: C176: IL-18 polypeptide: E6K, V11I, C38A, I49M, K53A, T63A, C76A, C127A (protein)
chain: B1 chain with A2F, V11I, C38A, I49M, A55S, T63A, C76A, C127A
B11: C174: IL-18 polypeptide: K8L, E6K, V11I, C38A, K53A, T63A, C76A, C127A (protein)
chain: B1 chain with A2F, K8L, V11I, C38A, A55S, T63A, C76A, C127A
B12: C182: IL-18 polypeptide: E6K, V11I, C38A, K53A, T63A, C76A, C127A, V153Y (protein)
chain: B1 chain with A2F, V11I, C38A, A55S, T63A, C76A, C127A, V153Y
B13: C181: IL-18 polypeptide: E6K, V11I, C38A, K53A, T63A, C76A, C127A, V153E (protein)
chain: B1 chain with A2F, V11I, C38A, A55S, T63A, C76A, C127A, V153E
B14: C142: IL-18 polypeptide: Y1M, E6K, V11I, C38A, K53A, T63A, C76A, C127A (protein)
chain: B1 chain with Y1M, A2F, V11I, C38A, A55S, T63A, C76A, C127A
B15: C178: IL-18 polypeptide: E6K, V11I, C38A, K53A, T63A, C76A, Q103R, C127A (protein)
chain: B1 chain with A2F, V11I, C38A, A55S, T63A, C76A, Q103R, C127A
B16: 56 (protein)
chain: B1 chain with A2F, C38S, A55S, C76S, C127S
B17: C179: IL-18 polypeptide: E6K, K8E, V11I, C38A, K53A, T63A, C76A, Q103R, C127A (protein)
chain: B1 chain with A2F, K8E, V11I, C38A, A55S, T63A, C76A, Q103R, C127A
B18: SEQ ID NO: 71: IL-18 polypeptide: N-terminal G, E6K, V11I, C38A, K53A, T63A, C76A, C127A (protein)
chain: GYFGKLKSKLSIIRNLNDQVLFIDQGNRPLFEDMTDSDARDNAPRTIFIISMYADSQPRGMAVAISVKCEKISTLSAENKIISFKEMNPPDNIKDTKSDIIFFQRSVPGHDNKMQFESSSYEGYFLAAEKERDLFKLILKKEDELGDRSIMFTVQNED
modifications: N-terminal G
notes: IL-18 polypeptide: N-terminal G, E6K, V11I, C38A, K53A, T63A, C76A, C127A
B19: SEQ ID NO: 70: IL-18 polypeptide: N-terminal G, E6K, V11I, C38A, M51G, K53A, T63A, C76A, C127A (protein)
chain: B18 chain with M52G
modifications: N-terminal G
notes: IL-18 polypeptide: N-terminal G, E6K, V11I, C38A, M51G, K53A, T63A, C76A, C127A

test system: NK-92 cells; test: IFNγ induction cellular assay in NK-92 cells (Example 4, used in Example 22C); type: cell-based, human; details: IFNg stimulation in NK92 cells
Description: The ability of immunocytokines and IL-18 polypeptides provided herein are assessed for ability to induce IFN[…] in a cellular assay according to the protocol below.
The NK cell line NK-92 derived from a patient with lymphoma (ATCC® CRL-2407™) is cultured in aMEM medium supplemented with 20% FCS, Glutamax, 25 µM B-mercaptoethanol, and 100 IU/mL of recombinant human IL-2.
On the day of experiment, cells are harvested and washed with aMEM medium without IL-2 and containing 1 ng/mL of recombinant human IL-12. After counting, cells are seeded at 100,000 cells/well in a 384 well titer plate and incubated at 37° C./5% CO2. Sixteen 4-fold serial dilutions of IL-18 analytes are prepared in aMEM medium, and 1 ng/mL of IL-12 were added to the NK-92 cells. Final IL-18 analyte concentrations range from 56 nM to 5×10^−5 pM.
After incubating the cells for 16-20 hr at 37° C./5% CO2, 5 μL of supernatant is carefully transferred to a 384 microwell OptiPlate. IFNγ levels are measured using a human IFNγ AlphaLISA Assay Kit. Briefly, 10 μL of 2.5× AlphaLISA Anti-IFNγ acceptor beads and biotinylated antibody anti-IFNγ mix are added to the 5 μL of NK-92 supernatants. The mixtures are incubated for 1 hr at room temperature with shaking. Under subdued light, 2.5 μL of 2× streptavidin (SA) donor beads are pipetted into each well, and the wells are incubated for 30 min at room temperature with shaking. AlphaLISA signals are then measured on an EnSpire™ plate reader using 680 nm and 615 nm as excitation and emission wavelengths, respectively. Half maximal effective concentrations (EC50) are calculated based on a variable slope and four parameter analysis using GraphPad PRISM software.
(§1) The experiments described in Example 4 for determination of IFNg stimulation in NK92 cells (and inhibition by IL-18 BP) were performed substantially as described on IL-18 polypeptides in order to assess their activities and their suitability for incorporation into immunocytokine compositions. It is expected that the IL-18 polypeptides provided below would behave analagously to C086 (SEQ ID NO: 30) when incorporated into an immunocytokine composition as those otherwise provided herein.

EC50 [nM] | Molecule
> 1000 | B1
58.5 | B2
0.075 | B3
1.37 | B4
30 | B5

target: T1, human IL-18BP; test: IL-18BP binding alphaLISA assay (Example 4, used in Example 22B); details: IL-18BP AlphaLISA
Description: A human IL-18BP AlphaLISA Assay Kit is used to determine the binding affinity of each immunocytokine and IL-18 variant for IL-18BP, which detected the presence of free form IL-18BP.
Sixteen three-fold serial dilutions of IL-18 analytes are prepared in aMEM medium supplemented with 20% FCS, Glutamax, and 25 µM β-mercaptoethanol in the presence of 5 ng/mL of His-tagged human IL-18BP. Final IL-18 analytes concentration range from 2778 nM to […].
After 1 hr incubation at room temperature, free IL-18BP levels are measured using a […]. In a 384 well OPTIplate, 5 μL of 5× Anti-IL-18BP acceptor beads are added to 7.5 μL of an IL-18/IL-18BP mix. After 30 min incubation at room temperature with shaking, 5 μL of biotinylated Anti-IL-18BP antibodies are added to each well. The plate is incubated further for 1 hr at room temperature. Under subdued light, 12.5 μL of 2× streptavidin (SA) donor beads are pipetted into each well, and the wells are incubated with shaking for an additional 30 min at room temperature. The AlphaLisa signal is then measured on an Enspire plate reader with 680 and 615 nm as excitation and emission wavelengths, respectively. The dissociation constant (KD) is calculated based on a variable slope, four parameter analysis using GraphPad PRISM software.
An IL-18 binding protein AiphaLISA experiment substantially as described in Example 4 was performed on IL-18 polypeptide which can be incorporated into immunocytokine compositions as provided herein to assess ability to bind to IL-181BP. It is expected that the IL-18 polypeptides provided below would behave analogously to C086 (SEQ ID NO: 30) when incorporated into an immunocytokine composition as those otherwise provided herein.

Kd [nM] | Molecule
> 2800 | B6
> 1000 | B1
> 2800 | B7
5.46 | B8
> 1000 | B2
> 2800 | B9
25.8 | B10
0.14 | B11
> 2800 | B12
> 2800 | B13
2.25 | B14
> 2800 | B15
436 | B16
> 1000 | B5
> 2800 | B17
> 2800 | B18
> 2800 | B19

test system: NK-92 cells; test: IL-18 binding protein inhibition cellular assay in NK-92 cells (Example 4, used in Example 22C); type: cell-based, human; details: inhibition by IL-18BP of IFNg stimulation in NK92 cells
Description: The NK cell line NK-92 derived from a patient with lymphoma (ATCC® CRL-2407™) is cultured in aMEM medium supplemented with 20% FCS-Glutamax, 25 µM B-mercaptoethanol, and 100 IU/mL of recombinant human IL-2.
On the day of experiment, cells are harvested and washed with aMEM medium without IL-2 and containing 1 ng/mL of recombinant human IL-12. After counting, the cells are seeded at 100,000 cells/well in a 384 well titer plate and incubated at 37° C./5% CO2. Sixteen 2-fold serial dilutions of Fc-fused human IL-18 binding protein isoform a (IL-18BPa) are prepared in aMEM medium. 1 ng/mL of IL-12 containing 2 nM of each IL-18 polypeptide variant is added to the NK-92 cells. The final IL-18 analyte concentration is 1 nM, and the final IL-18BPa concentration ranged from 566 nM to […].
After incubating the cells for 16-20 hr at 37° C./5% CO2, 5 μL of the supernatant is carefully transferred to a 384 microwell OptiPlate. IFNγ levels are measured using a human IFNγ AlphaLISA Assay Kit. Briefly, 10 μL of 2.5× AlphaLISA anti-IFNγ acceptor beads and biotinylated antibody anti-IFNγ mix are added to 5 μL of NK-92 supernatants. The mixtures are incubated for 1 hr at room temperature with shaking. Under subdued light, 2.5 μL of 2×SA donor beads are pipetted in each well and incubated for 30 min at room temperature with shaking. AlphaLISA signals are then measured on an EnSpire™ plate reader using 680 nm and 615 nm as excitation and emission wavelengths, respectively. Half maximal inhibitory concentrations (IC50) are calculated based on a variable slope and four parameter analysis using GraphPad PRISM software.
as §1

IC50 [nM] | Molecule
62.4 | B3
5.85 | B4
